Results reported in patent US7981423B2, “Rage fusion proteins” (Transtech Pharma, Inc., priority 2004, dated 2011).

How the values were obtained:
[1] = normal and diabetic rats; retention of immunoreactivity sRAGE; cited from earlier work
[2] = cited from earlier work
S100b (S100) = molecular target: T1, S100b (S100) (Homo sapiens, UniProt P04271); assay: In vitro ligand binding ELISA, immobilized S100b; conditions: various dilutions of fusion protein; FIG. 7
T1 sequence (P04271 1-92): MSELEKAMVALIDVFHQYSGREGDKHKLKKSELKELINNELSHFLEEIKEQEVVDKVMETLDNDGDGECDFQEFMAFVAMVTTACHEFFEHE
Description: (§1) For example, the RAGE fusion protein may be used in a binding assay to identify potential RAGE ligands. In one example embodiment of such a binding assay, a known RAGE ligand may coated onto a solid substrate (e.g., Maxisorb plates) at a concentration of about 5 micrograms per well, where each well contains a total volume of about 100 microliters (μL). The plates may be incubated at 4° C. overnight to allow the ligand to absorb. Alternatively, shorter incubation periods at higher temperature (e.g., room temperature) may be used. […] The fusion protein bound to the immobilized ligand may be detected in a variety of ways. […] The bound complex may be detected by adding the alkaline phosphatase substrate, para-nitrophenylphosphate (PNPP), and measuring conversion of PNPP to para-nitrophenol (PNP) as an increase in absorbance at 405 nm. […] Binding was detected by the addition of an immunodetection complex containing a monoclonal mouse anti-human IgG1 diluted 1:11,000 to a final assay concentration (FAC) of 21 ng/100 μL, a biotinylated goat anti-mouse IgG diluted 1:500, to a FAC of […], and an avidin-linked alkaline phosphatase. […] Binding of the complex to the immobilized fusion protein was quantified by measuring conversion of PNPP to para-nitrophenol (PNP) which was-measured spectrophotornetrically at 405 nm. […]

amyloid-beta (Abeta) = molecular target: T2, amyloid-beta (Abeta) (Homo sapiens, UniProt P05067); assay: In vitro ligand binding ELISA, immobilized amyloid-beta; conditions: various dilutions of fusion protein; FIG. 7
T2 construct: Amyloid Beta (1-40) from Biosource; purchased Biosource
Description: as §1

amphoterin (Ampho) = molecular target: T3, amphoterin (Ampho) (Homo sapiens, UniProt P09429); assay: In vitro ligand binding ELISA, immobilized amphoterin; conditions: various dilutions of fusion protein; FIG. 7
T3 sequence (P09429 1-215): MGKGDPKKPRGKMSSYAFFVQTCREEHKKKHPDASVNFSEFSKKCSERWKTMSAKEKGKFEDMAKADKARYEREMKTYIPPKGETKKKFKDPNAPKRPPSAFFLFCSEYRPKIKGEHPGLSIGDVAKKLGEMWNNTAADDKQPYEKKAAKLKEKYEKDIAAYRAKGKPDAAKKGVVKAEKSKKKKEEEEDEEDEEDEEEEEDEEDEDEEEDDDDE
Description: as §1

APP transgenic mice = assay: Mouse model of AD (APP transgenic mice); assay type: in vivo; conditions: treated for 3 months, versus vehicle and human IgG1
Description: Experiments were performed to evaluate whether TTP-4000 could affect amyloid formation and cognitive dysfunction in a mouse model of AD. The experiments utilized transgenic mice expressing the human Swedish mutant amyloid precursor protein (APP) under the control of the PDGF-B chain promoter. Over time, these mice generate high levels of the RAGE ligand, amyloid beta (Aβ).
The APP mice (male) used in this experiment were designed by microinjection of the human APP gene (with the Swedish and London mutations) into mouse eggs under the control of the platelet-derived growth factor B (PDGF-B) chain gene promoter. The mice were generated on a C57BL/6 background and were developed by Molecular Therapeutics Inc. Animals were fed ad libituin and maintained by brother sister mating. The mice generated from this construct develop amyloid deposits starting at 6 months of age. Animals were aged for 6 months and then maintained for 90 days and sacrificed for amyloid quantification.
APP transgenic mice were administered vehicle or TTP4000 every other day [qod (i.p.)] for 90 days starting at 6 months of age. At the end of the experiment, animals were sacrificed and examined for AP plaque burden in the brain (i.e., plaque number). A 6-month control APP group was used to determine the baseline of amyloid deposits. In addition, at the end of the study, the animals were subjected to behavioral (Morris water maze) analysis. The investigators were blinded to the study compounds. Samples were given to the mice at 0.25 ml/mouse/every other day.
For histological examination, the animals were anesthetized with an intraperitoneal injection (IP) of sodium pentobarbital (50 mg/kg). The animals were transcardially perfused with 4° C., phosphate-buffered saline (PBS) followed by 4% paraformaldehyde. The brains were removed and placed in 4% paraformaldehyde over night. The brains were processed to paraffin and embedded. Ten serial 30-μm thick sections through the brain were obtained. Sections were subjected to primary antibody overnight at 4° C. (Aβ peptide antibody) in order to detect the amyloid deposits in the brain of the transgenic animals (Guo et al., J. Neurosci., 22:5900-5909 (2002)). Sections were washed in Tris-buffered saline (TBS) and secondary antibody was added and incubated for 1 hour at room temperature. After washing, the sections were incubated as instructed in the Vector ABC Elite kit (Vector Laboratories) and stained with […] (DAB). The reactions were stopped in water and cover-slipped after treatment with xylene. The amyloid area in each section was determined with a computer-assisted image analysis system, consisting of a Power Macintosh computer equipped with a Quick Capture frame grabber card, Hitachi CCD camera mounted on an Olympus microscope and camera stand. NIH Image Analysis Software, v. 1.55 was used. The images were captured and the total area of amyloid was determined over the ten sections. A single operator blinded to treatment status performed all measurements. Summing the amyloid volumes of the sections and dividing by the total number of sections was done to calculate the amyloid volume.
For quantitative analysis, an enzyme-linked immunosorbent assay (ELISA) was used to measure the levels of human total Aβ, Aβtotal and Aβ1-42 in the brains of APP transgenic mice (Biosource International., Camarillo, Calif.). Aβtotal and Aβ1-42 were extracted from mouse brains by guanidine hydrochloride and quantified as described by the manufacturer. […]

T2 sequence (P05067 672-711 limits assumed): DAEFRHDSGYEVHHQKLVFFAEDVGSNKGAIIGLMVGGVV

human sRAGE: human soluble RAGE (e.g., SEQ ID NO: 4) [reference compound]
half-life [1]: less than 2 hours
half-life in plasma [2]: about 2 hours

sRAGE: soluble RAGE: the RAGE protein that does not include the transmembrane region or the cytoplasmic tail [reference compound]
half-life in plasma [2]: only a few hours

B1: TTP-3000: three domain RAGE fusion protein (SEQ ID NO: 35): human RAGE amino acids 1-136 linked to CH2 and CH3 domains of human IgG (protein)
chain: MAAGTAVGAWVLVLSLWGAVVGAQNITARIGEPLVLKCKGAPKKPPQRLEWKLNTGRTEAWKVLSPQGGGPWDSVARVLPNGSLFLPAVGIQDEGIFRCQAMNRNGKETKSNYRVRVYQIPGKPEIVDSASELTAGPSVFLFPPKPKDTLMISRTPEVTCVVVDVSHEDPEVKFNWYVDGVEVHNAKTKPREEQYNSTYRVVSVLTVLHQDWLNGKEYKCKVSNKALPAPIEKTISKAKGQPREPQVYTLPPSRDELTKNQVSLTCLVKGFYPSDIAVEWESNGQPENNYKTTPPVLDSDGSFFLYSKLTVDKSRWQQGNVFSCSVMHEALHNHYTQKSLSLSPGK
binding to immobilized S100b (absorbance at 405 nm) (S100b (S100)): specifically interact
binding to immobilized amyloid-beta (absorbance at 405 nm) (amyloid-beta (Abeta)): specifically interact
binding to immobilized amphoterin (absorbance at 405 nm) (amphoterin (Ampho)): specifically interact

B2: rodent sRAGE: rodent soluble RAGE (protein, UniProt Q62151 23-340, looked up)
extracellular domain: GQNITARIGEPLVLSCKGAPKKPPQQLEWKLNTGRTEAWKVLSPQGGPWDSVARILPNGSLLLPATGIVDEGTFRCRATNRRGKEVKSNYRVRVYQIPGKPEIVDPASELTASVPNKVGTCVSEGSYPAGTLSWHLDGKLLIPDGKETLVKEETRRHPETGLFTLRSELTVIPTQGGTHPTFSCSFSLGLPRRRPLNTAPIQLRVREPGPPEGIQLLVEPEGGIVAPGGTVTLTCAISAQPPPQVHWIKDGAPLPLAPSPVLLLPEVGHEDEGTYSCVATHPSHGPQESPPVSIRVTETGDEGPAEGSVGESGLGTLA
modifications: extracellular domain
notes: rodent soluble RAGE
half-life [1]: approximately 20 hours

B3: mouse sRAGE: mouse soluble RAGE used as comparator in the AD mouse model (protein, UniProt Q62151 23-340, looked up)
extracellular domain: B2 extracellular domain
modifications: extracellular domain
notes: mouse soluble RAGE used as comparator in the AD mouse model
Aβ plaques in the brain (APP transgenic mice; FIG. 14A): fewer Aβ plaques
cognitive dysfunction (Morris water maze) (APP transgenic mice; FIG. 14B): less cognitive dysfunction
